From CN105542008A (UNIV NANCHANG, dated 2016)

Experiments:
[1] = molecular target: T1, 前列腺特异性膜抗原 (PSMA) on LNCaP cells (UniProt Q04609 1-750, limits assumed); test: cell ELISA (HRP-anti-M13) and immunofluorescence on fixed LNCaP cells, with PSMA-negative MKN45 cells as comparison
T1 construct: whole, on cells; also called LNCaP细胞(表达PSMA)

重组表达的PSMA胞外区蛋白 = molecular target: T2, 重组表达的PSMA胞外区蛋白 (UniProt Q04609 44-750, limits assumed); test: indirect phage-ELISA, PSMA extracellular domain coated at 5 μg/mL, HRP-anti-M13 detection
T2 construct: extracellular domain; also called 前列腺特异性膜抗原膜外区; PSMA蛋白; not shown: His tag (purified on HisTrap, detected with anti-His antibody)
T2 sequence (Q04609 44-750 limits assumed): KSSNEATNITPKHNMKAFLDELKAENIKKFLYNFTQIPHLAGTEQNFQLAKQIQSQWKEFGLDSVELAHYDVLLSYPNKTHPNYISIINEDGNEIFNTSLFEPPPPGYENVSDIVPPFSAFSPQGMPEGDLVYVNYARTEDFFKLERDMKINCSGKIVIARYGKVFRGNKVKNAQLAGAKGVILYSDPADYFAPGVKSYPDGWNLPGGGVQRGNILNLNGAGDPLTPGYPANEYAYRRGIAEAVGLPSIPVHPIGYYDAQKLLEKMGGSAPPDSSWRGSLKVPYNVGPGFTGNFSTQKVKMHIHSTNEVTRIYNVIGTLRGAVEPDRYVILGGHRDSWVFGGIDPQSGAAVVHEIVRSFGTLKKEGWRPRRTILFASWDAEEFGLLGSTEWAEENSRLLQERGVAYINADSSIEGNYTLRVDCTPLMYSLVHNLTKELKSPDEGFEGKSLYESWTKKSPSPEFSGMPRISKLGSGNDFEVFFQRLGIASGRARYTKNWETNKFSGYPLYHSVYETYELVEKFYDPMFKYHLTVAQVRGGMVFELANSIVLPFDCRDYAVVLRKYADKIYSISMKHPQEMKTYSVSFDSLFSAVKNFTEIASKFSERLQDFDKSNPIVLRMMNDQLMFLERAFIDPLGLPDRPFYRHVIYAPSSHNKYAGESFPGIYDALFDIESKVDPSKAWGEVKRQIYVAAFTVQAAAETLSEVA

T1 sequence (Q04609 whole entry): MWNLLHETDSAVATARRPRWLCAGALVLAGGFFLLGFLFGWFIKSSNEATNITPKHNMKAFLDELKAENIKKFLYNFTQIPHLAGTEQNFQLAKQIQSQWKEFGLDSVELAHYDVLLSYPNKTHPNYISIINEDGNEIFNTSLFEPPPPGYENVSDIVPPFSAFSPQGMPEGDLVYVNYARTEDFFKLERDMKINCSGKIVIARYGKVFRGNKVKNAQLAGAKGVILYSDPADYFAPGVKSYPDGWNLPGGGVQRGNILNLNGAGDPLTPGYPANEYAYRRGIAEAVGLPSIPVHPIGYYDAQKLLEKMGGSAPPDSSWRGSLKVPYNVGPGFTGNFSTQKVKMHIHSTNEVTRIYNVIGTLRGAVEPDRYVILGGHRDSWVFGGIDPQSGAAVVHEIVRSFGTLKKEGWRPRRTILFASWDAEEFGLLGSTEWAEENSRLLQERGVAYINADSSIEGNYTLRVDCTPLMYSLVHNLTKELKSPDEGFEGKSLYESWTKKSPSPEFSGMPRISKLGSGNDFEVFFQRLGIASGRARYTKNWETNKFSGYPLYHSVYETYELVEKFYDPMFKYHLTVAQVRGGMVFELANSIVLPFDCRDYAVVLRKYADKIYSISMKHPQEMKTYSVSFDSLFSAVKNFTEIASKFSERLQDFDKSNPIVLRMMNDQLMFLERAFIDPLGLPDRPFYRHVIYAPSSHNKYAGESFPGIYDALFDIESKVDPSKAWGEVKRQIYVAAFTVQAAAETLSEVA

B1: 抗前列腺特异性膜抗原单域重链抗体噬菌体阳性克隆 (VHH)
VHH: QLQLVESGGGLVQPGGSLRLTCTTSGFSLRYHDIGWFRQAPGKEREGVSCITGSLGDPYVDESLQGRFTISRDDHKNMVYLRMNSLKSEDTALYYCAIVRGCKDHDAYADVRARGQGTQVTVSS
notes: also called 针对前列腺特异性膜抗原的单域重链抗体阳性克隆; 展示本发明所述纳米抗体的噬菌体克隆; not shown: the fusion to the phage coat protein is not described
Q: What does the source list for B1?
A: binding result [1]: binds; binding result (重组表达的PSMA胞外区蛋白): binds
